Numbered stars: 1 amine (or outer) side, 2 acyl side, 3 side chain; on linkers, the order of the positions; unused ones are H or OH. Bridge positions count the residues as written; N and C are the ends. Square brackets hold non-standard residues; d marks the D form. Side chains are listed from the residue outwards. Ends that are not written are not given here. * marks the point of attachment. C18 diacid = O=C(O)CCCCCCCCCCCCCCCCC(=O)*; γGlu = O=C(O)[C@H](CCC(=O)[*:2])N[*:1]; Aib = CC(C)(N)C(=O)O
T1: human amylin receptor (calcitonin receptor co-expressed with receptor activity modifying protein, RAMP3) (human, UniProt P30988 25-474; O60896 24-148)
T1 sequence (looked up) 1: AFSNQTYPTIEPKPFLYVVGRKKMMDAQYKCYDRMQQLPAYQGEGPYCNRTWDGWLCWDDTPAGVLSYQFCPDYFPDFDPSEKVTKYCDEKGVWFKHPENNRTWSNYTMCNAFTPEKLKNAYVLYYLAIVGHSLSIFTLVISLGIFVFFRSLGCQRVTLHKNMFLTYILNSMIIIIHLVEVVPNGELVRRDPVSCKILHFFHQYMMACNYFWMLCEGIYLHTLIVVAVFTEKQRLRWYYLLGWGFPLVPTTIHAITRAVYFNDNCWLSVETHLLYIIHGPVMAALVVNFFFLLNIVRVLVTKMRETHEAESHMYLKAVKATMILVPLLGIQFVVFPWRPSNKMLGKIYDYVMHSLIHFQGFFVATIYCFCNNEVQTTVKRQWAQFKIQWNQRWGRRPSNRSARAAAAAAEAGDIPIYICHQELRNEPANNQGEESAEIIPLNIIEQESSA
T1 sequence (looked up) 2: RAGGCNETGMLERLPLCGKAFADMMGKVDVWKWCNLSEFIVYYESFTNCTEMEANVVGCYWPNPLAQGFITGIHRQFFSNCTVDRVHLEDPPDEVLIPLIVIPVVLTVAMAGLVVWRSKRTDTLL

T2: human calcitonin receptor (human, UniProt P30988 25-474)
T2 sequence (looked up): T1 sequence (looked up) 1

B1: Peptide 134 (SEQ ID NO: 134) (peptide)
peptide: K([γGlu-C18 diacid])KCNTATCATQRLANFL[Aib]HSSNNFGPILPPTPVGSNTY-NH2
modifications: disulfide 3-8; N-terminus assumed
SMILES: CC[C@H](C)[C@H](NC(=O)[C@@H]1CCCN1C(=O)CNC(=O)[C@H](Cc1ccccc1)NC(=O)[C@H](CC(N)=O)NC(=O)[C@H](CC(N)=O)NC(=O)[C@H](CO)NC(=O)[C@H](CO)NC(=O)[C@H](Cc1c[nH]cn1)NC(=O)C(C)(C)NC(=O)[C@H](CC(C)C)NC(=O)[C@H](Cc1ccccc1)NC(=O)[C@H](CC(N)=O)NC(=O)[C@H](C)NC(=O)[C@H](CC(C)C)NC(=O)[C@H](CCCNC(=N)N)NC(=O)[C@H](CCC(N)=O)NC(=O)[C@@H](NC(=O)[C@H](C)NC(=O)[C@@H]1CSSC[C@H](NC(=O)[C@H](CCCCN)NC(=O)[C@@H](N)CCCCNC(=O)CC[C@H](NC(=O)CCCCCCCCCCCCCCCCC(=O)O)C(=O)O)C(=O)N[C@@H](CC(N)=O)C(=O)N[C@@H]([C@@H](C)O)C(=O)N[C@@H](C)C(=O)N[C@@H]([C@@H](C)O)C(=O)N1)[C@@H](C)O)C(=O)N[C@@H](CC(C)C)C(=O)N1CCC[C@H]1C(=O)N1CCC[C@H]1C(=O)N[C@H](C(=O)N1CCC[C@H]1C(=O)N[C@H](C(=O)NCC(=O)N[C@@H](CO)C(=O)N[C@@H](CC(N)=O)C(=O)N[C@H](C(=O)N[C@@H](Cc1ccc(O)cc1)C(N)=O)[C@@H](C)O)C(C)C)[C@@H](C)O
B2: Peptide 130 (SEQ ID NO: 130) (peptide)
peptide: K([γGlu-C18 diacid])KCNTATCATQRLAEFL[Aib]HSSHNFGPILPPTNVGSNTY-NH2
modifications: disulfide 3-8; N-terminus assumed
SMILES: CC[C@H](C)[C@H](NC(=O)[C@@H]1CCCN1C(=O)CNC(=O)[C@H](Cc1ccccc1)NC(=O)[C@H](CC(N)=O)NC(=O)[C@H](Cc1c[nH]cn1)NC(=O)[C@H](CO)NC(=O)[C@H](CO)NC(=O)[C@H](Cc1c[nH]cn1)NC(=O)C(C)(C)NC(=O)[C@H](CC(C)C)NC(=O)[C@H](Cc1ccccc1)NC(=O)[C@H](CCC(=O)O)NC(=O)[C@H](C)NC(=O)[C@H](CC(C)C)NC(=O)[C@H](CCCNC(=N)N)NC(=O)[C@H](CCC(N)=O)NC(=O)[C@@H](NC(=O)[C@H](C)NC(=O)[C@@H]1CSSC[C@H](NC(=O)[C@H](CCCCN)NC(=O)[C@@H](N)CCCCNC(=O)CC[C@H](NC(=O)CCCCCCCCCCCCCCCCC(=O)O)C(=O)O)C(=O)N[C@@H](CC(N)=O)C(=O)N[C@@H]([C@@H](C)O)C(=O)N[C@@H](C)C(=O)N[C@@H]([C@@H](C)O)C(=O)N1)[C@@H](C)O)C(=O)N[C@@H](CC(C)C)C(=O)N1CCC[C@H]1C(=O)N1CCC[C@H]1C(=O)N[C@H](C(=O)N[C@@H](CC(N)=O)C(=O)N[C@H](C(=O)NCC(=O)N[C@@H](CO)C(=O)N[C@@H](CC(N)=O)C(=O)N[C@H](C(=O)N[C@@H](Cc1ccc(O)cc1)C(N)=O)[C@@H](C)O)C(C)C)[C@@H](C)O
B3: Peptide 128 (SEQ ID NO: 128) (peptide)
peptide: K([γGlu-C18 diacid])KCNTATCATQRLAEFL[Aib]HSSNNFGPILPPTNVGSNTY-NH2
modifications: disulfide 3-8; N-terminus assumed
SMILES: CC[C@H](C)[C@H](NC(=O)[C@@H]1CCCN1C(=O)CNC(=O)[C@H](Cc1ccccc1)NC(=O)[C@H](CC(N)=O)NC(=O)[C@H](CC(N)=O)NC(=O)[C@H](CO)NC(=O)[C@H](CO)NC(=O)[C@H](Cc1c[nH]cn1)NC(=O)C(C)(C)NC(=O)[C@H](CC(C)C)NC(=O)[C@H](Cc1ccccc1)NC(=O)[C@H](CCC(=O)O)NC(=O)[C@H](C)NC(=O)[C@H](CC(C)C)NC(=O)[C@H](CCCNC(=N)N)NC(=O)[C@H](CCC(N)=O)NC(=O)[C@@H](NC(=O)[C@H](C)NC(=O)[C@@H]1CSSC[C@H](NC(=O)[C@H](CCCCN)NC(=O)[C@@H](N)CCCCNC(=O)CC[C@H](NC(=O)CCCCCCCCCCCCCCCCC(=O)O)C(=O)O)C(=O)N[C@@H](CC(N)=O)C(=O)N[C@@H]([C@@H](C)O)C(=O)N[C@@H](C)C(=O)N[C@@H]([C@@H](C)O)C(=O)N1)[C@@H](C)O)C(=O)N[C@@H](CC(C)C)C(=O)N1CCC[C@H]1C(=O)N1CCC[C@H]1C(=O)N[C@H](C(=O)N[C@@H](CC(N)=O)C(=O)N[C@H](C(=O)NCC(=O)N[C@@H](CO)C(=O)N[C@@H](CC(N)=O)C(=O)N[C@H](C(=O)N[C@@H](Cc1ccc(O)cc1)C(N)=O)[C@@H](C)O)C(C)C)[C@@H](C)O
B4: Peptide 131 (SEQ ID NO: 131) (peptide)
peptide: K([γGlu-C18 diacid])KCNTATCATQRLANFL[Aib]HSSHNFGPILPPTNVGSNTY-NH2
modifications: disulfide 3-8; N-terminus assumed
SMILES: CC[C@H](C)[C@H](NC(=O)[C@@H]1CCCN1C(=O)CNC(=O)[C@H](Cc1ccccc1)NC(=O)[C@H](CC(N)=O)NC(=O)[C@H](Cc1c[nH]cn1)NC(=O)[C@H](CO)NC(=O)[C@H](CO)NC(=O)[C@H](Cc1c[nH]cn1)NC(=O)C(C)(C)NC(=O)[C@H](CC(C)C)NC(=O)[C@H](Cc1ccccc1)NC(=O)[C@H](CC(N)=O)NC(=O)[C@H](C)NC(=O)[C@H](CC(C)C)NC(=O)[C@H](CCCNC(=N)N)NC(=O)[C@H](CCC(N)=O)NC(=O)[C@@H](NC(=O)[C@H](C)NC(=O)[C@@H]1CSSC[C@H](NC(=O)[C@H](CCCCN)NC(=O)[C@@H](N)CCCCNC(=O)CC[C@H](NC(=O)CCCCCCCCCCCCCCCCC(=O)O)C(=O)O)C(=O)N[C@@H](CC(N)=O)C(=O)N[C@@H]([C@@H](C)O)C(=O)N[C@@H](C)C(=O)N[C@@H]([C@@H](C)O)C(=O)N1)[C@@H](C)O)C(=O)N[C@@H](CC(C)C)C(=O)N1CCC[C@H]1C(=O)N1CCC[C@H]1C(=O)N[C@H](C(=O)N[C@@H](CC(N)=O)C(=O)N[C@H](C(=O)NCC(=O)N[C@@H](CO)C(=O)N[C@@H](CC(N)=O)C(=O)N[C@H](C(=O)N[C@@H](Cc1ccc(O)cc1)C(N)=O)[C@@H](C)O)C(C)C)[C@@H](C)O
B5: Peptide 133 (SEQ ID NO: 133) (peptide)
peptide: K([γGlu-C18 diacid])KCNTATCATQRLANFL[Aib]HSSSNFGPILPPTNVGSNTY-NH2
modifications: disulfide 3-8; N-terminus assumed
SMILES: CC[C@H](C)[C@H](NC(=O)[C@@H]1CCCN1C(=O)CNC(=O)[C@H](Cc1ccccc1)NC(=O)[C@H](CC(N)=O)NC(=O)[C@H](CO)NC(=O)[C@H](CO)NC(=O)[C@H](CO)NC(=O)[C@H](Cc1c[nH]cn1)NC(=O)C(C)(C)NC(=O)[C@H](CC(C)C)NC(=O)[C@H](Cc1ccccc1)NC(=O)[C@H](CC(N)=O)NC(=O)[C@H](C)NC(=O)[C@H](CC(C)C)NC(=O)[C@H](CCCNC(=N)N)NC(=O)[C@H](CCC(N)=O)NC(=O)[C@@H](NC(=O)[C@H](C)NC(=O)[C@@H]1CSSC[C@H](NC(=O)[C@H](CCCCN)NC(=O)[C@@H](N)CCCCNC(=O)CC[C@H](NC(=O)CCCCCCCCCCCCCCCCC(=O)O)C(=O)O)C(=O)N[C@@H](CC(N)=O)C(=O)N[C@@H]([C@@H](C)O)C(=O)N[C@@H](C)C(=O)N[C@@H]([C@@H](C)O)C(=O)N1)[C@@H](C)O)C(=O)N[C@@H](CC(C)C)C(=O)N1CCC[C@H]1C(=O)N1CCC[C@H]1C(=O)N[C@H](C(=O)N[C@@H](CC(N)=O)C(=O)N[C@H](C(=O)NCC(=O)N[C@@H](CO)C(=O)N[C@@H](CC(N)=O)C(=O)N[C@H](C(=O)N[C@@H](Cc1ccc(O)cc1)C(N)=O)[C@@H](C)O)C(C)C)[C@@H](C)O
B6: Peptide 132 (SEQ ID NO: 132) (peptide)
peptide: K([γGlu-C18 diacid])KCNTATCATQRLANFL[Aib]HSSPNFGPILPPTNVGSNTY-NH2
modifications: disulfide 3-8; N-terminus assumed
SMILES: CC[C@H](C)[C@H](NC(=O)[C@@H]1CCCN1C(=O)CNC(=O)[C@H](Cc1ccccc1)NC(=O)[C@H](CC(N)=O)NC(=O)[C@@H]1CCCN1C(=O)[C@H](CO)NC(=O)[C@H](CO)NC(=O)[C@H](Cc1c[nH]cn1)NC(=O)C(C)(C)NC(=O)[C@H](CC(C)C)NC(=O)[C@H](Cc1ccccc1)NC(=O)[C@H](CC(N)=O)NC(=O)[C@H](C)NC(=O)[C@H](CC(C)C)NC(=O)[C@H](CCCNC(=N)N)NC(=O)[C@H](CCC(N)=O)NC(=O)[C@@H](NC(=O)[C@H](C)NC(=O)[C@@H]1CSSC[C@H](NC(=O)[C@H](CCCCN)NC(=O)[C@@H](N)CCCCNC(=O)CC[C@H](NC(=O)CCCCCCCCCCCCCCCCC(=O)O)C(=O)O)C(=O)N[C@@H](CC(N)=O)C(=O)N[C@@H]([C@@H](C)O)C(=O)N[C@@H](C)C(=O)N[C@@H]([C@@H](C)O)C(=O)N1)[C@@H](C)O)C(=O)N[C@@H](CC(C)C)C(=O)N1CCC[C@H]1C(=O)N1CCC[C@H]1C(=O)N[C@H](C(=O)N[C@@H](CC(N)=O)C(=O)N[C@H](C(=O)NCC(=O)N[C@@H](CO)C(=O)N[C@@H](CC(N)=O)C(=O)N[C@H](C(=O)N[C@@H](Cc1ccc(O)cc1)C(N)=O)[C@@H](C)O)C(C)C)[C@@H](C)O

Biological target: T1, human amylin receptor (calcitonin …)
Assay: cell-based or functional assay

EC50 (cAMP production) [pM]	Ratio (EC50 hCTR / EC50 hAMYR3)	Binder
281	7.9	B1
446	15	B2
118	4.8	B3
737	20.5	B4
378	6.8	B5
416	9.3	B6

Biological target: T2, human calcitonin receptor
Assay: cell-based or functional assay

EC50 (cAMP production) [nM]	Binder
2.22	B1
6.69	B2
0.568	B3
15.1	B4
2.58	B5
3.85	B6

Source: patent US20220204580A1 (AstraZeneca / MedImmune, published 2022)
